In the experiment the target is GST-Fbw7 (residues 263 to 707)-Skp1 complex (UniProt Q969H0). Put plainly: AlphaScreen or HTRF. (In general: Bead proximity is the source of the signal in Alpha formats.)

On to “Myc T58 degron peptide, monophosphorylated (pT58)”, for which the IC50 (usually the concentration that inhibits the measured activity by half) stood at 1320 nM.

The values above are taken from PMC8797792.
